From patent US20240034813A1 (Janssen / Centocor, published 2024)

Experiments:
[1] = molecular target: T1, recombinant human EGFR/ErbB1/HER1 with C-terminal His tag, Cy5-labeled (human, UniProt P00533 25-645, Cy5 label (reacted with Cy5 Mono NHS Ester; sites not stated)); assay: competitive TR-FRET (Eu-amivantamab/Cy5-EGFR), EC50 ratio vs Reference Material; Ex. 2 Formulation 1 (10 mM histidine), T0, 40 C table
T1 construct: Commercial protein; also called Cy5-EGFR; Cy5-labeled EGFR antigen; not shown: C-terminal His tag
Excerpt: (§1) In this procedure, varying concentrations of unlabeled bispecific EGFR-cMet antibody sample compete with donor fluorophore (Europium (Eu) chelate) labeled bispecific EGFR-cMet antibody for binding to an acceptor fluorophore (Cy5)-labeled EGFR antigen. Excitation of the donor fluorophore results in a transfer of energy to the bound acceptor fluorophore (FRET process). The resultant FRET is detected by emission of light at 665 nm using a microplate reader capable of measuring time-resolved fluorescence. Sample dose response curves are compared to the RM.
(§2) EGFR Binding Materials and Methods. Certified commercial EGFR, a recombinant human EGFR/ErbB1/HER1 with C-terminal His tag is reacted with certified commercial Cy5 Mono NHS Ester to produce Cy5-labeled EGFR. Validated bispecific EGFR-cMet antibody is reacted with certified commercial Europium (Eu) chelate to produce Eu-labeled bispecific EGFR-cMet antibody. […] Fluorescence is then measured by spectrophotometry at 665 nm, plotted against antibody concentration and analyzed by a four-parameter logistic model. The antibody concentration required to obtain half of the maximum fluorescence response (EC50) is determined for RM, assay control and samples. The potencies of assay control and samples are calculated based on the ratio of the sample (or control) and RM EC50 values and reported as a percentage activity relative to the RM.

[2] = molecular target: T1, recombinant human EGFR/ErbB1/HER1 with …; assay: competitive TR-FRET (Eu-amivantamab/Cy5-EGFR), EC50 ratio vs Reference Material; Ex. 2 Formulation 3 (acetate), 3 months at 25 C
Excerpt: as §1, §2

[3] = molecular target: T2, recombinant cMet/HGFR with c-terminal His-tag, Cy5-labeled (UniProt P08581 25-932, limits assumed, Cy5 label (reacted with Cy5 Mono NHS Ester; sites not stated)); assay: competitive TR-FRET (Eu-amivantamab/Cy5-c-MET), EC50 ratio vs Reference Material; Ex. 2 Formulation 3 (acetate), T0, 25 C table
T2 construct: Commercial protein; also called Cy5-c-MET; Cy5-labeled c-MET antigen; not shown: C-terminal His-tag
Excerpt: as §1, with “(Cy5)-labeled c-MET” for “(Cy5)-labeled EGFR”, “the Reference Material (RM).” for “the RM.”
as §2, with “c-MET Binding” for “EGFR Binding”, “commercial cMet,” for “commercial EGFR,”, “recombinant cMet/HGFR” for “recombinant human EGFR/ErbB1/HER1”, “with c-terminal His-tag” for “with C-terminal His tag”, “Cy5-labeled c-MET.” for “Cy5-labeled EGFR.”, “produce Eu labeled” for “produce Eu-labeled”

[4] = molecular target: T2, recombinant cMet/HGFR with c-terminal …; assay: competitive TR-FRET (Eu-amivantamab/Cy5-c-MET), EC50 ratio vs Reference Material; Ex. 12 drug product with rHuPH20, 1 month at 40 C
Excerpt: as §1, with “(Cy5)-labeled c-MET” for “(Cy5)-labeled EGFR”, “the Reference Material (RM).” for “the RM.”
as §2, with “c-MET Binding” for “EGFR Binding”, “commercial cMet,” for “commercial EGFR,”, “recombinant cMet/HGFR” for “recombinant human EGFR/ErbB1/HER1”, “with c-terminal His-tag” for “with C-terminal His tag”, “Cy5-labeled c-MET.” for “Cy5-labeled EGFR.”, “produce Eu labeled” for “produce Eu-labeled”

[5] = molecular target: T1, recombinant human EGFR/ErbB1/HER1 with …; assay: competitive TR-FRET (Eu-amivantamab/Cy5-EGFR), EC50 ratio vs Reference Material; Ex. 11 drug product, 1 month at 40 C
Excerpt: as §1, §2

[6] = molecular target: T2, recombinant cMet/HGFR with c-terminal …; assay: competitive TR-FRET (Eu-amivantamab/Cy5-c-MET), EC50 ratio vs Reference Material; Ex. 2 Formulation 3 (acetate), 3 months at 40 C
Excerpt: as §1, with “(Cy5)-labeled c-MET” for “(Cy5)-labeled EGFR”, “the Reference Material (RM).” for “the RM.”
as §2, with “c-MET Binding” for “EGFR Binding”, “commercial cMet,” for “commercial EGFR,”, “recombinant cMet/HGFR” for “recombinant human EGFR/ErbB1/HER1”, “with c-terminal His-tag” for “with C-terminal His tag”, “Cy5-labeled c-MET.” for “Cy5-labeled EGFR.”, “produce Eu labeled” for “produce Eu-labeled”

[7] = molecular target: T2, recombinant cMet/HGFR with c-terminal …; assay: competitive TR-FRET (Eu-amivantamab/Cy5-c-MET), EC50 ratio vs Reference Material; Ex. 12 drug product with rHuPH20, 9 months at 5 C
Excerpt: as §1, with “(Cy5)-labeled c-MET” for “(Cy5)-labeled EGFR”, “the Reference Material (RM).” for “the RM.”
as §2, with “c-MET Binding” for “EGFR Binding”, “commercial cMet,” for “commercial EGFR,”, “recombinant cMet/HGFR” for “recombinant human EGFR/ErbB1/HER1”, “with c-terminal His-tag” for “with C-terminal His tag”, “Cy5-labeled c-MET.” for “Cy5-labeled EGFR.”, “produce Eu labeled” for “produce Eu-labeled”

[8] = molecular target: T1, recombinant human EGFR/ErbB1/HER1 with …; assay: competitive TR-FRET (Eu-amivantamab/Cy5-EGFR), EC50 ratio vs Reference Material; Ex. 12 drug product with rHuPH20, 3 months at 40 C
Excerpt: as §1, §2

EGFR Binding % activity relative to RM [1]: 103%
EGFR Binding % activity relative to RM [2]: 92%
cMET Binding % activity relative to RM [3]: 94%
cMET Binding activity relative to Reference Material (%) [4]: 81%
EGFR Binding activity relative to Reference Material (%) [5]: 39%
cMET Binding % activity relative to RM [6]: 85%
cMET Binding activity relative to Reference Material (%) [7]: 106%
EGFR Binding activity relative to Reference Material (%) [8]: 9%
B1: amivantamab (bispecific antibody, human IgG1, kappa)
heavy 1: not shown
light 1: not shown
heavy 2: not shown
light 2: DIQMTQSPSSVSASVGDRVTITCRASQGISNWLAWFQHKPGKAPKLLIYAASSLLSGVPSRFSGSGSGTDFTLTISSLQPEDFATYYCQQANSFPITFGQGTRLEIKRTVAAPSVFIFPPSDEQLKSGTASVVCLLNNFYPREAKVQWKVDNALQSGNSQESVTEQDSKDSTYSLSSTLTLSKADYEKHKVYACEVTHQGLSSPVTKSFNRGEC
notes: The samples tested were high concentration (160 mg/mL) formulations, fresh or stored or stressed; also called JNJ-61186372; bispecific EGFR-cMet antibody
